Measured values taken from US20100329990.

Biological target: TTE (TBF-EGFP fusion with the TEV protease recognition sequence ENLYFQG, flanked by 4 glycines on each side, between TBF and EGFP)

B1: TEV protease (Gibco-Life Technologies) (protein)
chain: GESLFKGPRDYNPISSTICHLTNESDGHTTSLYGIGFGPFIITNKHLFRRNNGTLLVQSLHGVFKVKNTTTLQQHLIDGRDMIIIRMPKDFPPFPQKLKFREPQREERICLVTTNFQTKSMSSMVSDTSCTFPSSDGIFWKHWIQTKDGQCGSPLVSTRDGFIVGIHSASNFTNTNNYFTSVPKNFMELLTNQEAQQWVSGWRLNADSVLWGGHKVFMSKPEEPFQPVKEATQLMNELVYSQ
Question: B1 was tested. Which “cleavage of TTE by TEV protease, followed by time-gated emission spectra (loss of Tb3+ to EGFP energy transfer)” value did it give?
Answer: The absence of the chromophore peak at 510 nm indicates that the energy transfer system from Tb^3+ to the chromophore is diminished.
